# In patent US20200164059A1 (FRED HUTCHINSON CANCER RESEARCH CENTER, published 2020):
# Tests used:
# [1] = biological target: T1, EBV gH/gL heterodimer, recombinant ectodomain (Epstein Barr virus); assay: BLI kinetics, pH 7.4, ligand AMMO1 Mab, analyte gH/gL; KA M^-1 x10^7
# T1 construct: range 19-679;range 24-137
# [2] = biological target: T1, EBV gH/gL heterodimer, recombinant …; assay: BLI kinetics, pH 7.4, ligand AMMO1 Mab, analyte gH/gL; koff (1/s) x10^-3
# [3] = biological target: gH/gL on EBV virions (Epstein Barr virus, UniProt P03231 19-706; P03212 23-137); assay: cell-based or functional assay
# [4] = biological target: T1, EBV gH/gL heterodimer, recombinant …; assay: BLI kinetics, pH 5.0, ligand AMMO1 Mab, analyte gH/gL; KA M^-1 x10^7
# [5] = biological target: T1, EBV gH/gL heterodimer, recombinant …; assay: BLI kinetics, pH 5.0, ligand AMMO1 Mab, analyte gH/gL; kon (1/Ms) x10^5
# [6] = biological target: T1, EBV gH/gL heterodimer, recombinant …; assay: BLI kinetics, pH 7.4, ligand AMMO1 Mab, analyte gH/gL; kon (1/Ms) x10^5
# [7] = biological target: gH T62A/gL, recombinant ectodomain (Epstein Barr virus)
# [8] = biological target: T1, EBV gH/gL heterodimer, recombinant …; assay: BLI kinetics, pH 5.0, ligand AMMO1 Mab, analyte gH/gL; koff (1/s) x10^-3
# [9] = biological target: T1, EBV gH/gL heterodimer, recombinant …; assay: BLI kinetics, pH 5.0, ligand AMMO1 Mab, analyte gH/gL; KD M x10^-9
# [10] = biological target: T1, EBV gH/gL heterodimer, recombinant …; assay: BLI kinetics, pH 7.4, ligand AMMO1 Mab, analyte gH/gL; KD M x10^-9
binder,measurement,setting,value
"AMMO1 (antibody, V domains shown, also called WT AMMO1; anti-gH/gL MAb AMMO1) VH: QVQLVQSGADVKKPGASVKVSCKASGYTFIHFGISWVRQAPGQGLEWMGWIDTNNGNTNYAQSLQGRVTMTTDTSTGTAYMELRSLSTDDTAVYFCARALEMGHRSGFPFDYWGQGVLVTVSP VL: SYELTQPPSVSVAPGQRATITCGGHNIGAKNVHWYQQKPGQAPVLVIQYDSDRPSGIPERFSGSNSGSTATLTISRVEAGDEADYYCQVWDSGRGHPLYVFGGGTKVTVL",Ka,[1],8.63e+09 M⁻¹
same,koff,[2],3.87e-05 s⁻¹
same,"neutralization of B95.8/F EBV infection of B (Raji) cells, IC50",[3],0.16 µg/mL
same,Ka,[4],7.84e+09 M⁻¹
same,kon,[5],573000 M⁻¹ s⁻¹
same,kon,[6],334000 M⁻¹ s⁻¹
same,Ka,[7],5.85e+09 M⁻¹
same,Kd,[7],170 pM
same,koff,[7],0.000135 s⁻¹
same,kon,[7],789000 M⁻¹ s⁻¹
same,koff,[8],7.31e-05 s⁻¹
same,Kd,[9],130 pM
same,Kd,[10],120 pM
